Biological target: its substrates (DNA-bound substrates of p97 on plasmid isolated from extract with p97i)
Experiment: pull-down; dilution experiment: plasmid incubated 180 minutes in extract with CB-5083, isolated by plasmid pull-down, washed, resuspended in 100 volumes of ELB with or without 5 mM ATP, 21 °C; p97 retained on bead-bound DNA by Western blot over time

p97 (endogenous, Xenopus egg extract) (from UniProt P23787 1-805) (natural protein)
decrease of DNA-bound p97 within 180 minutes, with ATP: 90% | decrease of DNA-bound p97 within 180 minutes, without ATP: 70%
